Results from patent US20050043228A1.

Legend:
[1] = biological target: protamine (from protamine sulfate); experiment: Val^8-GLP-1 in the supernatant versus total, after mixing with protamine, 25 C, 24 h
poly-L-arginine = experiment: Val^8-GLP-1 in the supernatant versus total, after mixing with poly-L-arginine, 25 C, 24 h
[2] = biological target: protamine (from protamine sulfate); experiment: share of Val^8-GLP-1 in particles (supernatant versus total); 2.0 mg Val^8-GLP-1 + 0.22 mg protamine, ratio 9.1
[3] = biological target: protamine (from protamine sulfate); experiment: share of Val^8-GLP-1 in particles (supernatant versus total); 2.0 mg Val^8-GLP-1 + 0.27 mg protamine, ratio 7.4
[4] = biological target: protamine (from protamine sulfate); experiment: share of Val^8-GLP-1 in particles (supernatant versus total); 2.0 mg Val^8-GLP-1 + 0.33 mg protamine, ratio 6.1
[5] = biological target: protamine (from protamine sulfate); experiment: share of Val^8-GLP-1 in particles (supernatant versus total); 2.0 mg Val^8-GLP-1 + 0.38 mg protamine, ratio 5.3
[6] = biological target: protamine (from protamine sulfate); experiment: share of Val^8-GLP-1 in particles (supernatant versus total); 2.0 mg Val^8-GLP-1 + 0.44 mg protamine, ratio 4.5
[7] = biological target: protamine (from protamine sulfate); experiment: share of Val^8-GLP-1 in particles (supernatant versus total); 2.0 mg Val^8-GLP-1 + 0.49 mg protamine, ratio 4.1
[8] = biological target: protamine (from protamine sulfate); experiment: share of Val^8-GLP-1 in particles (supernatant versus total); 2.0 mg Val^8-GLP-1 + 0.55 mg protamine, ratio 3.6
[9] = biological target: protamine (from protamine sulfate); experiment: share of Val^8-GLP-1 in particles (supernatant versus total); 2.0 mg Val^8-GLP-1 + 0.16 mg protamine, ratio 12.5

B1: Val^8-GLP-1(7-37)OH (peptide)
peptide: HVEGTFTSDVSSYLEGQAAKEFIAWLVKGRG
yield (share of Val^8-GLP-1 in the particles) [1]: 90 to 95% | yield (share of Val^8-GLP-1 in the particles) (poly-L-arginine): 90% | Yield % [2]: 73.2% | Yield % [3]: 84.3% | Yield % [4]: 94.5% | Yield % [5]: 98.3% | Yield % [6]: 99.5% | Yield % [7]: 99.7% | Yield % [8]: 99.4% | Yield % [9]: 54.6%
